This note sets out measurements from publication PMC10349104.

Test in all cases: SPR
Assay [1] deals with EVA-A(Y44A) (Amblyomma americanum).
Assay [2] has as its target EVA-A(Y44A) (A. americanum).
Assay [3] deals with EVA-A(L39P) (Amblyomma americanum).
For assay [4], the target named is EVA-A(L39P) (A. americanum).
The target of assay [5] is EVA-A(1-98) (A. americanum).
The target in assay [6] is EVA-A(C8) (A. americanum).
The target of assay [7] is EVA-A(21-102) (A. americanum).
The target of assay [8] is EVA-A(DC) (Amblyomma americanum).

Values joined by “and” are separate entries in the source; they are usually repeats but may differ in a detail not shown here. Equal entries are not always repeated.

Sequence of CCL2 (P13500 24-99): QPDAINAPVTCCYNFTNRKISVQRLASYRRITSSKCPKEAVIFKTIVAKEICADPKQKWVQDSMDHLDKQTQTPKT
Sequence of CCL14 (Q16627 20-93): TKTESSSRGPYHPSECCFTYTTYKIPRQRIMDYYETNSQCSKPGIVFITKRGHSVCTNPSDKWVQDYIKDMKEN
Sequence of CCL7 (P80098 24-99): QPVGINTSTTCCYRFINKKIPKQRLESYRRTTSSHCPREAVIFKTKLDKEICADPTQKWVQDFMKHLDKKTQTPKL
Sequence of CCL15 (Q16663 22-113): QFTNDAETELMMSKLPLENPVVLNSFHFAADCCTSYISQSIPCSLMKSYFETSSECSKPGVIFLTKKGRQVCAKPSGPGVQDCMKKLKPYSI
Sequence of CCL27 (Q9Y4X3 25-112): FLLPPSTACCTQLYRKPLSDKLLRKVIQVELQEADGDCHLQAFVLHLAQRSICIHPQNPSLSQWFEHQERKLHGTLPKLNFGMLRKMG

Turning to “CCL2 (from UniProt P13500 24-99) (ligand)”, the equilibrium dissociation constant (Kd) in assay [1] was 109 nM and 191 nM and 70 nM; in assay [2], 123 nM; in assay [3], 25.6 nM and 20.7 nM and 28.4 nM; in assay [4] it was 24.9 nM. For the same substance, the koff was 0.032 s⁻¹ in assay [2]; 0.00858 s⁻¹ and 0.00729 s⁻¹ and 0.00847 s⁻¹ in assay [3]; 0.036 s⁻¹ in assay [4]. In addition, the association rate constant (kon) was 291000 M⁻¹ s⁻¹ in assay [2]; 335000 M⁻¹ s⁻¹ and 353000 M⁻¹ s⁻¹ and 298000 M⁻¹ s⁻¹ in assay [3]; 329000 M⁻¹ s⁻¹ in assay [4].

For “CCL7 (from UniProt P80098 24-99) (ligand)”, the dissociation constant (Kd) in assay [1] was 4.63 nM and 5.4 nM and 4.4 nM; in assay [5], 1010 nM; in assay [6], 765 nM.

With “CCL11(F11A) (from UniProt P51671 24-97) (ligand)”, the Kd in assay [1] was 2.64 nM and 2.95 nM and 2.91 nM; in assay [2], 2.83 nM; in assay [3], 0.424 nM and 0.602 nM and 0.499 nM; in assay [4] it was 0.51 nM. Moreover, the koff in assay [1] was 0.00233 1/s (2×) and 0.00213 1/s; in assay [2] it was 0.00226 s⁻¹; in assay [3], 0.000383 s⁻¹ and 0.000365 s⁻¹ and 0.000304 s⁻¹; in assay [4] it was 0.00035 s⁻¹. For the same substance, the on-rate constant (kon) in assay [1] was 884000 M⁻¹ s⁻¹ and 722000 M⁻¹ s⁻¹ and 801000 M⁻¹ s⁻¹; in assay [2], 802000 M⁻¹ s⁻¹; in assay [3] it was 904000 M⁻¹ s⁻¹ and 606000 M⁻¹ s⁻¹ and 610000 M⁻¹ s⁻¹; in assay [4] it was 707000 M⁻¹ s⁻¹.

Take “CCL14 (from UniProt Q16627 20-93) (ligand)”: the Kd in assay [7] was 0.11 nM; in assay [5], below 0.1 nM; in assay [2] it was 0.11 nM; in assay [6] it was 1.3 nM; in assay [4], 0.04 nM. Further, the off-rate (koff) in assay [7] was 8e-05 s⁻¹; in assay [5] it was below 0.0001 s⁻¹; in assay [2], 5e-05 s⁻¹; in assay [6], 0.00048 s⁻¹; in assay [4] it was 0.00013 s⁻¹. Further, the kon was 703000 M⁻¹ s⁻¹ in assay [7]; 239000 M⁻¹ s⁻¹ in assay [5]; 481000 M⁻¹ s⁻¹ in assay [2]; 386000 M⁻¹ s⁻¹ in assay [6]; 2.41e+06 M⁻¹ s⁻¹ in assay [4].

With CCL14 (ligand), the kon in assay [8] was 206000 M⁻¹ s⁻¹ and 297000 M⁻¹ s⁻¹ and 214000 M⁻¹ s⁻¹.

On to “CCL15 (from UniProt Q16663 22-113) (ligand)”, for which the dissociation constant (Kd) is 34 nM in assay [7]; 31.7 nM in assay [5]; 161 nM in assay [2]; 577 nM in assay [6]; 26.6 nM in assay [4]. The koff in assay [7] is 0.00214 s⁻¹; in assay [5], 0.00162 s⁻¹; in assay [2], 0.0117 s⁻¹; in assay [6], 0.0127 s⁻¹; in assay [4], 0.00467 s⁻¹. The kon in assay [7] was found to be 63000 M⁻¹ s⁻¹; in assay [5], 53000 M⁻¹ s⁻¹; in assay [2], 79000 M⁻¹ s⁻¹; in assay [6], 22000 M⁻¹ s⁻¹; in assay [4] it was 102000 M⁻¹ s⁻¹.

Turning to CCL15 (ligand), in assay [8], the Kd was 30.9 nM and 32.9 nM and 31.2 nM; the koff was 0.00162 s⁻¹ and 0.00173 s⁻¹ and 0.00167 s⁻¹; the association rate constant (kon) was 52500 M⁻¹ s⁻¹ and 52700 M⁻¹ s⁻¹ and 53700 M⁻¹ s⁻¹.

As to “CCL16(L19A) (from UniProt O15467 24-120) (ligand)”, the dissociation constant Kd was 25.2 nM and 12.3 nM and 10.2 nM in assay [1]; 15.9 nM in assay [2]; 1.54 nM and 1.52 nM (2×) in assay [3]; 1.53 nM in assay [4]. Further, the off-rate (koff) in assay [1] was 0.00171 s⁻¹ and 0.00134 s⁻¹ and 0.00147 s⁻¹; in assay [2], 0.00151 s⁻¹; in assay [3] it was 0.000757 s⁻¹ and 0.000893 s⁻¹ and 0.000913 s⁻¹; in assay [4], 0.00085 s⁻¹. The kon in assay [1] is 68100 M⁻¹ s⁻¹ and 109000 M⁻¹ s⁻¹ and 144000 M⁻¹ s⁻¹; in assay [2], 107000 M⁻¹ s⁻¹; in assay [3], 492000 M⁻¹ s⁻¹ and 588000 M⁻¹ s⁻¹ and 599000 M⁻¹ s⁻¹; in assay [4] it was 560000 M⁻¹ s⁻¹.

For “CCL27 (from UniProt Q9Y4X3 25-112) (ligand)”, the dissociation constant (Kd) in assay [1] is 59.4 nM and 191 nM and 78.8 nM; in assay [5], 41.7 nM; in assay [2], 110 nM; in assay [8], 36.9 nM and 53 nM and 35.3 nM; in assay [3], 48.2 nM and 78.8 nM and 64.7 nM; in assay [4], 63.9 nM. Further, the kon in assay [1] was 51200 M⁻¹ s⁻¹ and 70200 M⁻¹ s⁻¹ and 34000 M⁻¹ s⁻¹; in assay [5], 95000 M⁻¹ s⁻¹; in assay [2], 52000 M⁻¹ s⁻¹; in assay [8] it was 111000 M⁻¹ s⁻¹ and 69300 M⁻¹ s⁻¹ and 105000 M⁻¹ s⁻¹; in assay [3], 45300 M⁻¹ s⁻¹ and 34000 M⁻¹ s⁻¹ and 55000 M⁻¹ s⁻¹; in assay [4] it was 45000 M⁻¹ s⁻¹. The koff was 0.00409 s⁻¹ in assay [5]; 0.00639 s⁻¹ in assay [2]; 0.00409 s⁻¹ and 0.00367 s⁻¹ and 0.0037 s⁻¹ in assay [8]; 0.00218 s⁻¹ and 0.00268 s⁻¹ and 0.00356 s⁻¹ in assay [3]; 0.00309 s⁻¹ in assay [4].
